The values below come from patent publication US20240400638A1, “COMBINATION OF RELAXIN AND VASOPRESSIN ANALOGUES FOR TREATMENT OF RENAL DISORDERS OR CONDITIONS” (River 2 Renal Corp., priority 2021, published 2024).

Numbered stars: 1 amine (or outer) side, 2 acyl side, 3 side chain; on linkers, the order of the positions; unused ones are H or OH. Square brackets hold non-standard residues; d marks the D form. Side chains are listed from the residue outwards. * marks the point of attachment. TTDS = 4-[3-[2-[2-(3-aminopropoxy)ethoxy]ethoxy]propylamino]-4-oxo-butanoyl; Trp(5-F) = N[C@@H](Cc1c[nH]c2ccc(F)cc12)C(=O)O; Phe(4-F) = N[C@@H](Cc1ccc(F)cc1)C(=O)O; γGlu = O=C(O)[C@H](CCC(=O)[*:2])N[*:1]; Stearoyl = CCCCCCCCCCCCCCCCCC(=O)*; Palmitoyl = CCCCCCCCCCCCCCCC(=O)*; αMeF = C[C@](N)(Cc1ccccc1)C(=O)O; Myristoyl = CCCCCCCCCCCCCC(=O)*; Cit = NC(=O)NCCC[C@H](N)C(=O)O; αMeK = C[C@](N)(CCCCN)C(=O)O; hLys = NCCCCC[C@H](N)C(=O)O; AEEA = NCCOCCOCC(=O)O; Aib = CC(C)(N)C(=O)O

To fix the notation:
T1: human RXFP1 (human, UniProt Q9HBX9 1-757)
T1 sequence (looked up): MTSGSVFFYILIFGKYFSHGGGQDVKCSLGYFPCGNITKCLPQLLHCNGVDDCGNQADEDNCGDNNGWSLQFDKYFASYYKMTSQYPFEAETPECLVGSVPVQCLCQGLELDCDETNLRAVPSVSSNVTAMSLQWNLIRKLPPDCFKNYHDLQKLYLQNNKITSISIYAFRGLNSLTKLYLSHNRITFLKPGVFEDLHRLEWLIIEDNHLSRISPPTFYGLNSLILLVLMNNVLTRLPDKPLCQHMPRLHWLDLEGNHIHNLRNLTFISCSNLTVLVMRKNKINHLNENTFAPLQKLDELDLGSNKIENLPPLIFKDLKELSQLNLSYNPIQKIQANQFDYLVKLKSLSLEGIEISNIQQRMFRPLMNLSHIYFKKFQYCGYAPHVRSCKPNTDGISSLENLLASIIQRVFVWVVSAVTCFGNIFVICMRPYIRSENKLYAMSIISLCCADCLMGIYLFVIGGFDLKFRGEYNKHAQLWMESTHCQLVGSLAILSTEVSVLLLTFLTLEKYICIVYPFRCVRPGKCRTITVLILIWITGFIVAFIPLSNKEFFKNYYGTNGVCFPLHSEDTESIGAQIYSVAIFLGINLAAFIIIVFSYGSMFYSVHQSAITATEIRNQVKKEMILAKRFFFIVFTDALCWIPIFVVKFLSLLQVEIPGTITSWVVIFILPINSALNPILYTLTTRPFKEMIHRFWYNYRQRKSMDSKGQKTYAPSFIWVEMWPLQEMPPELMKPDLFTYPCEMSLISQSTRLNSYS

B1: Relaxin peptide analogue of SEQ ID NO: 19 (peptide)
peptide: Ac-LEGREKVRAK(Ac)I[Aib][Aib]EGK([AEEA-AEEA-AEEA-γGlu-γGlu-γGlu-Palmitoyl])STWS[Aib]RKK(Ac)-NH2
SMILES: CCCCCCCCCCCCCCCC(=O)N[C@@H](CCC(=O)N[C@@H](CCC(=O)N[C@@H](CCC(=O)NCCOCCOCC(=O)NCCOCCOCC(=O)NCCOCCOCC(=O)NCCCC[C@H](NC(=O)CNC(=O)[C@H](CCC(=O)O)NC(=O)C(C)(C)NC(=O)C(C)(C)NC(=O)[C@@H](NC(=O)[C@H](CCCCNC(C)=O)NC(=O)[C@H](C)NC(=O)[C@H](CCCNC(=N)N)NC(=O)[C@@H](NC(=O)[C@H](CCCCN)NC(=O)[C@H](CCC(=O)O)NC(=O)[C@H](CCCNC(=N)N)NC(=O)CNC(=O)[C@H](CCC(=O)O)NC(=O)[C@H](CC(C)C)NC(C)=O)C(C)C)[C@@H](C)CC)C(=O)N[C@@H](CO)C(=O)N[C@H](C(=O)N[C@@H](Cc1c[nH]c2ccccc12)C(=O)N[C@@H](CO)C(=O)NC(C)(C)C(=O)N[C@@H](CCCNC(=N)N)C(=O)N[C@@H](CCCCN)C(=O)N[C@@H](CCCCNC(C)=O)C(N)=O)[C@@H](C)O)C(=O)O)C(=O)O)C(=O)O

The assay has as its target T1, human RXFP1. Kind of assay: cell-based or functional assay.
Regarding Ac-LEGREKVRAK(Ac)I[Aib][Aib]EGK([TTDS-TTDS-TTDS-γGlu-γGlu-γGlu-Palmitoyl])STFVRRAK(Ac)-NH2 [Relaxin peptide analogue of SEQ ID NO: 94], the “EC50 (nM), OVCAR 5 cells (cAMP)” value was 1.74 nM and the “EMax, OVCAR 5 cells (cAMP)” value was determined as 88%.

As for Ac-LEGREKVRAK(Ac)I[Aib][Aib]EGK([TTDS-TTDS-TTDS-γGlu-γGlu-γGlu-Myristoyl])STFS[αMeK]RAK-NH2 [Relaxin peptide analogue of SEQ ID NO: 96], the “EC50 (nM), OVCAR 5 cells (cAMP)” value was 0.88 nM and the “EMax, OVCAR 5 cells (cAMP)” value turned out to be 92%.

Consider Ac-LEGREKVRAK(Ac)I[Aib][Aib]EGK([TTDS-TTDS-γGlu-γGlu-γGlu-Palmitoyl])STWS[dK]RKK(Ac)-NH2 [Relaxin peptide analogue of SEQ ID NO: 18], for which the “EC50 (nM), OVCAR 5 cells (cAMP)” value is 1.54 nM and the “EMax, OVCAR 5 cells (cAMP)” value worked out at 92%.

Take Ac-LEGREKVRAK(Ac)I[Aib][Aib]EGK([TTDS-TTDS-γGlu-γGlu-Palmitoyl])STFS[αMeK]RAK(Ac)-NH2 [Relaxin peptide analogue of SEQ ID NO: 9]: the “EC50 (nM), OVCAR 5 cells (cAMP)” value was found to be 0.7 nM and the “EMax, OVCAR 5 cells (cAMP)” value stood at 93%.

As to B1, the “EC50 (nM), OVCAR 5 cells (cAMP)” value was found to be 11.5 nM and the “EMax, OVCAR 5 cells (cAMP)” value amounted to 94%.

As for Ac-LEGREKVRAK(Ac)I[Aib][Aib]EGK([TTDS-TTDS-TTDS-γGlu-γGlu-γGlu-Palmitoyl])ST[αMeF]SRRAK(Ac)-NH2 [Relaxin peptide analogue of SEQ ID NO: 89], the “EC50 (nM), OVCAR 5 cells (cAMP)” value was 0.1 nM and the “EMax, OVCAR 5 cells (cAMP)” value was determined as 97%.

On to Ac-LEGREKVRAK(Ac)I[Aib][Aib]EGK([TTDS-TTDS-TTDS-γGlu-γGlu-γGlu-Palmitoyl])STFTRRAK(Ac)-NH2 [Relaxin peptide analogue of SEQ ID NO: 93], for which the “EC50 (nM), OVCAR 5 cells (cAMP)” value amounted to 0.77 nM and the “EMax, OVCAR 5 cells (cAMP)” value worked out at 86%.

On to Ac-LEGREKVRAK(Ac)I[Aib][Aib]EGK([TTDS-TTDS-TTDS-γGlu-γGlu-γGlu-Stearoyl])STWS[Aib]RKK(Ac)-NH2 [Relaxin peptide analogue of SEQ ID NO: 20], for which the “EC50 (nM), OVCAR 5 cells (cAMP)” value amounted to 0.15 nM and the “EMax, OVCAR 5 cells (cAMP)” value was 96%.

In the case of Ac-LEGREKVRAK(Ac)I[Aib][Aib]EGK([TTDS-TTDS-TTDS-γGlu-γGlu-γGlu-Palmitoyl])STF[dS]KRAK(Ac)-NH2 [Relaxin peptide analogue of SEQ ID NO: 14], the “EC50 (nM), OVCAR 5 cells (cAMP)” value was found to be 3.2 nM and the “EMax, OVCAR 5 cells (cAMP)” value is 90%.

On to Ac-LEGREKVRAK(Ac)I[Aib][Aib]EGK([TTDS-TTDS-γGlu-γGlu-γGlu-Palmitoyl])STWS[dK]RAK(Ac)-NH2 [Relaxin peptide analogue of SEQ ID NO: 17], for which the “EC50 (nM), OVCAR 5 cells (cAMP)” value turned out to be 4.6 nM and the “EMax, OVCAR 5 cells (cAMP)” value was found to be 91%.

With Ac-LEGREKVRAK(Ac)I[Aib][Aib]EGK([TTDS-TTDS-TTDS-γGlu-γGlu-γGlu-Palmitoyl])STF[Aib]KRAK(Ac)-NH2 [Relaxin peptide analogue of SEQ ID NO: 15], the “EC50 (nM), OVCAR 5 cells (cAMP)” value came to 2.1 nM and the “EMax, OVCAR 5 cells (cAMP)” value was determined as 85%.

For the molecule Ac-LEGREKVRA[Cit]I[Aib][Aib]EGK([TTDS-TTDS-TTDS-γGlu-γGlu-γGlu-Palmitoyl])STFS[αMeK]RAK(Ac)-NH2 [Relaxin peptide analogue of SEQ ID NO: 12], the “EC50 (nM), OVCAR 5 cells (cAMP)” value turned out to be 0.93 nM and the “EMax, OVCAR 5 cells (cAMP)” value amounted to 90%.

As for Ac-LEGREKVRAK(Ac)I[Aib][Aib]EGK([TTDS-TTDS-TTDS-γGlu-γGlu-γGlu-Myristoyl])STFS[αMeK]RAK(Ac)-NH2 [Relaxin peptide analogue of SEQ ID NO: 95], the “EC50 (nM), OVCAR 5 cells (cAMP)” value amounted to 1.8 nM and the “EMax, OVCAR 5 cells (cAMP)” value came to 91%.

Take Ac-LEGREKVRAK(Ac)I[Aib][Aib]EGK([TTDS-TTDS-TTDS-γGlu-γGlu-γGlu-Palmitoyl])STFS[hLys]RAK(Ac)-NH2 [Relaxin peptide analogue of SEQ ID NO: 88]: the “EC50 (nM), OVCAR 5 cells (cAMP)” value was determined as 0.17 nM and the “EMax, OVCAR 5 cells (cAMP)” value came out at 96%.

Ac-LEGREKVRAK(Ac)I[Aib][Aib]EGK([TTDS-TTDS-TTDS-γGlu-γGlu-γGlu-Palmitoyl])STWS[αMeK]RAK(Ac)-NH2 [Relaxin peptide analogue of SEQ ID NO: 11]: the “EC50 (nM), OVCAR 5 cells (cAMP)” value amounted to 0.83 nM and the “EMax, OVCAR 5 cells (cAMP)” value is 93%.

In the case of Ac-LEGREKVRAK(Ac)I[Aib][Aib]EGK([TTDS-TTDS-TTDS-γGlu-γGlu-γGlu-Palmitoyl])STFS[Aib]RAK(Ac)-NH2 [Relaxin peptide analogue of SEQ ID NO: 2], the “EC50 (nM), OVCAR 5 cells (cAMP)” value was determined as 2.4 nM and the “EMax, OVCAR 5 cells (cAMP)” value was found to be 99%.

For Ac-LEGREKVRAK(Ac)IA[Aib]EGK([TTDS-TTDS-TTDS-γGlu-γGlu-γGlu-Palmitoyl])STFS[αMeK]RAK(Ac)-NH2 [Relaxin peptide analogue of SEQ ID NO: 90], the “EC50 (nM), OVCAR 5 cells (cAMP)” value turned out to be 0.14 nM and the “EMax, OVCAR 5 cells (cAMP)” value amounted to 97%.

With Ac-LEGRERVRAK(Ac)I[Aib][Aib]EGK([TTDS-TTDS-TTDS-γGlu-γGlu-γGlu-Palmitoyl])ST[Trp(5-F)]S[Aib]RRK(Ac)-NH2 [Relaxin peptide analogue of SEQ ID NO: 92], the “EC50 (nM), OVCAR 5 cells (cAMP)” value is 0.1 nM and the “EMax, OVCAR 5 cells (cAMP)” value was 99%.

For Ac-LEGREKVRAK(Ac)I[Aib][Aib]EGK([TTDS-TTDS-γGlu-γGlu-γGlu-γGlu-Palmitoyl])STFS[αMeK]RAK(Ac)-NH2 [Relaxin peptide analogue of SEQ ID NO: 10], the “EC50 (nM), OVCAR 5 cells (cAMP)” value was 0.79 nM and the “EMax, OVCAR 5 cells (cAMP)” value was determined as 95%.

On to Ac-LEGRERVRAK(Ac)I[Aib][Aib]EGK([TTDS-TTDS-TTDS-γGlu-γGlu-γGlu-Palmitoyl])ST[Phe(4-F)]S[Aib]RRK(Ac)-NH2 [Relaxin peptide analogue of SEQ ID NO: 91], for which the “EC50 (nM), OVCAR 5 cells (cAMP)” value was found to be 0.09 nM and the “EMax, OVCAR 5 cells (cAMP)” value is 97%.

Turning to Ac-LEGREKVRAK(Ac)I[Aib][Aib]EGK([TTDS-TTDS-γGlu-γGlu-γGlu-Palmitoyl])STFS[dK]RAK(Ac)-NH2 [Relaxin peptide analogue of SEQ ID NO: 16], the “EC50 (nM), OVCAR 5 cells (cAMP)” value turned out to be 6.8 nM and the “EMax, OVCAR 5 cells (cAMP)” value stood at 88%.

Take Ac-LEGREKVRAK(Ac)I[Aib][Aib]EGK([TTDS-TTDS-TTDS-γGlu-γGlu-γGlu-Palmitoyl])STFSKRAK(Ac)-NH2 [Relaxin peptide analogue of SEQ ID NO: 13]: the “EC50 (nM), OVCAR 5 cells (cAMP)” value is 2.12 nM and the “EMax, OVCAR 5 cells (cAMP)” value came to 91%.

Consider Ac-LEGREKVRAK(Ac)I[Aib][Aib]EGK([TTDS-TTDS-TTDS-γGlu-γGlu-γGlu-γGlu-Myristoyl])STFS[αMeK]RAK-NH2 [Relaxin peptide analogue of SEQ ID NO: 97], for which the “EC50 (nM), OVCAR 5 cells (cAMP)” value worked out at 0.29 nM and the “EMax, OVCAR 5 cells (cAMP)” value was determined as 98%.
